Target: mp2k6_human MAP2K6 (UniProt P52564)
UniProt P52564, sequence (P52564 whole entry): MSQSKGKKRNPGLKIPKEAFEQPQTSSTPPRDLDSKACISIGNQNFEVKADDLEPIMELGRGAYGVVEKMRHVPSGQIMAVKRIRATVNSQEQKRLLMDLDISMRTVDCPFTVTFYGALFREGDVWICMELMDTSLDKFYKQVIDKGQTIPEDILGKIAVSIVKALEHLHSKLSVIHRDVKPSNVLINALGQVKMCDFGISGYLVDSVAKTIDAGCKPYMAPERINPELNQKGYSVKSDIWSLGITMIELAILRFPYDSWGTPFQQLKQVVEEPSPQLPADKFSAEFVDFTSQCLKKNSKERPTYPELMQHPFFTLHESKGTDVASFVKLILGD

In the case of “Leucine-rich repeat serine/threonine-protein kinase 2 (Homo sapiens), Q5S007 R1441C”, the “effect of a mutation on the interaction” value is reported as “increasing interaction”.

Reference: IntAct's records for PubMed 20067578
